Drawing on article PMC11480844 (2024), this text covers ratio to parent for 75 variants.

First the molecules themselves.
B1: H2-Kb / F4 (parent complex)
chain 1: QQQVRQSPQSLTVWEGETAILNCSYEDSTFNYFPWYQQFPGEGPALLISIRSVSDKKEDGRFTIFFNKREKKLSLHITDSQPGDSATYFCAAMSNYNVLYFGSGTKLTVEP
chain 2: ETAVFQTPNYHVTQVGNEVSFNCKQTLGHDTMYWYKQDSKKLLKIMFSYNNKQLIVNETVPRRFSPQSSDKAHLNLRIKSVEPEDSAVYLCASSARQNSPLYFAAGTRLTVT
chain 3: not shown
chain 4: IQKTPQIQVYSRHPPENGKPNILNCYVTQFHPPHIEIQMLKNGKKIPKVEMSDMSFSKDWSFYILAHTEFTPTETDTYACRVKHDSMAEPKTVYWDRDM
chain 5: SIINFEKL
B2: H2-Kb / Ed8 (parent complex)
chain 1: AQSVTQPDARVTVSEGASLQLRCKYSYFGTPYLFWYVQYPRQGLQLLLKYYPGDPVVQGVNGFEAEFSKSNSSFHLRKASVHWSDWAVYFCAVSPGSGGKLTLGAGTRLQVNL
chain 2: DSGVVQSPRHIIKEKGGRSVLTCIPISGHSNVVWYQQTLGKELKFLIQHYEKVERDKGFLPSRFSVQQFDDYHSEMNMSALELEDSAMYFCASSPRASNYTFGSGTRLLVI
chain 3: not shown
chain 4: B1 chain 4
chain 5: SIINFEKL
Note: test concentration or dose not given here.

The variants in one assay derive from B1. Nature of the assay: % of reporter cells activated (NFAT-GFP), raw.
Turning to chain 5 S1R, the ratio to parent was found to be 0.0259.
On the same count and under the same terms, next, chain 5 I2V: 1.94; chain 5 I2M: 0.617; chain 5 I2A: 1.38.
The same measure, in the same setting: the value for chain 5 I2N was 0.305.
Still for that read-out and setting: the value for chain 5 I3A was 0.467.
As for chain 5 N4W, the ratio to parent was found to be 0.0415.
The same measure, in the same setting: the value for chain 5 N4E was 0.0228.
On the same count and under the same terms, next, chain 5 F5G: 0.264; chain 5 F5D: 0.129.
For chain 5 F5C, the ratio to parent worked out at 1.29.
Same read-out and setting: the value for chain 5 F5P was 0.0353; that for chain 5 L8T was 0.614; that for chain 5 L8H was 0.805.

Another assay covers variants of B2. The assay is described as follows: % of reporter cells activated (NFAT-GFP), raw.
chain 5 K7M: the ratio to parent worked out at 0.578.
Still for that read-out and setting: the value for chain 5 K7S was 0.898; that for chain 5 K7G was 0.616.
Still for that read-out and setting: next, chain 5 K7H: 1.25.
Still for that read-out and setting: the value for chain 5 K7P was 0.689.
Turning to chain 5 K7V, the ratio to parent was determined as 0.73.
On the same count and under the same terms, the value for chain 5 K7I was 0.698.
The same measure, in the same setting: next, chain 5 K7F: 0.393; chain 5 K7L: 0.815.
Still for that read-out and setting: next, chain 5 K7E: 0.0642.
For the variant chain 5 F5C, the ratio to parent was 1.3.
On the same count and under the same terms, the value for chain 5 F5G was 1.03; that for chain 5 F5L was 1.41.
On the same count and under the same terms, the value for chain 5 F5V was 1.09; that for chain 5 F5D was 1.12; that for chain 5 F5W was 1.12.
On the same count and under the same terms, the value for chain 5 F5P was 1.16; that for chain 5 F5T was 1.32.
As to chain 5 L8I, the ratio to parent was determined as 1.15.
On the same count and under the same terms, next, chain 5 L8F: 1.12.
On to chain 5 L8D, for which the ratio to parent was 0.903.
Take chain 5 I2L: the ratio to parent came out at 1.37.
On the same count and under the same terms, the value for chain 5 I2N was 1.26; that for chain 5 I2W was 1.16; that for chain 5 I2C was 1.33.
The same measure, in the same setting: the value for chain 5 I2D was 1.39; that for chain 5 I2Y was 1.06.
Take chain 5 I2R: the ratio to parent worked out at 1.16.
Same read-out and setting: next, chain 5 I2K: 1.18; chain 5 I2E: 1.34; chain 5 I2Q: 1.06.
On to chain 5 S1T, for which the ratio to parent worked out at 1.37.
On the same count and under the same terms, the value for chain 5 S1L was 0.917; that for chain 5 S1V was 1.15.
Still for that read-out and setting: the value for chain 5 S1W was 1.05; that for chain 5 S1Q was 1.24; that for chain 5 S1M was 1.27.
Same read-out and setting: the value for chain 5 S1P was 1.13; that for chain 5 S1G was 1.28.
As to chain 5 N4H, the ratio to parent worked out at 0.155.
On the same count and under the same terms, the value for chain 5 N4T was 0.262; that for chain 5 N4L was 0.84; that for chain 5 N4S was 0.216.
With chain 5 N4Q, the ratio to parent turned out to be 0.00512.
Still for that read-out and setting: next, chain 5 N4A: 0.255; chain 5 N4E: 0.336.
On to chain 5 N4R, for which the ratio to parent was found to be 0.442.
Same read-out and setting: next, chain 5 N4W: 0.00716; chain 5 N4P: 0.00499.
The same measure, in the same setting: next, chain 5 E6W: 0.012; chain 5 E6C: 0.0436; chain 5 E6A: 0.678.
Still for that read-out and setting: the value for chain 5 E6Y was 0.606; that for chain 5 E6R was 0.459; that for chain 5 E6V was 0.0189.
chain 5 E6M: the ratio to parent stood at 0.453.
Same read-out and setting: next, chain 5 I3L: 1.3; chain 5 I3P: 1.25; chain 5 I3A: 1.14.
The same measure, in the same setting: the value for chain 5 I3R was 0.541; that for chain 5 I3H was 1.4.
